Results published in publication PMC4951027 (2016).
Ends that are not written are not given here.

Target: Fn N-terminal domain fragment (Fn-NTD) (human)
Assay: ITC

Fn N-terminal domain fragment (Fn-NTD) (human), sequence (chain, as listed by the source): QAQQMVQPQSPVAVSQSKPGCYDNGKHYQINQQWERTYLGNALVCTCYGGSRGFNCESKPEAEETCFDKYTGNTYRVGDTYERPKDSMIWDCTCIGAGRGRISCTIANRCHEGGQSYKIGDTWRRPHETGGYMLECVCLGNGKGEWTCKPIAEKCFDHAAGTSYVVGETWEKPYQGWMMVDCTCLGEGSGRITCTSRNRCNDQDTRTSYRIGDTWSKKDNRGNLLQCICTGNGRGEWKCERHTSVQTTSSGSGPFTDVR

Binder: SYQFGGHNSVDFEEDTLPKVSGQNEGQQTIEEDTTPP (domain or fragment, also: fused to GST carrier (carrier not in chain)) [GST-FnBPA-11]
- Kd: < 1 nM

Binder: NEKNGPIIQNNKFEYKEDTIKETLTGQYDKNLVTTVEEEYDS (domain or fragment, also: fused to GST carrier (carrier not in chain)) [GST-FnBPA-1]
- Kd: 4.8 nM

Binder: GGGQVTTESNLVEFDEESTKGIVTGAVSDHTTVEDTK (domain or fragment, also: fused to GST carrier (carrier not in chain)) [GST-FnBPA-5]
- Kd: 44 nM

Binder: KYEHGGNIIDIDFDSVPHIHGFNKHTEIIEEDTNKDKP (domain or fragment, also: fused to GST carrier (carrier not in chain)) [GST-FnBPA-10]
- Kd: 20 nM

Binder: KYEQGGNIVDIDFDSVPQIHGQNKGNQSFEEDTEKDKP (domain or fragment, also: fused to GST carrier (carrier not in chain)) [GST-FnBPA-9]
- Kd: 7.3 nM
